Experimental data taken from US20240158769A1 (RHEINISCH WESTF LISCHE TECHNISCHE HOCHSCHULE RWTH AACHEN, published 2024).

Target: the molecule itself
Assay: size exclusion chromatography against protein standards (peaks at 80 kDa and 50 kDa; data not shown)

B1: Phytase chimera PTRec 77 (enzyme)
chain: SDTAPAGFQLERVVILSRHGVRAPTKMTQTMRDVTPHQWPEWPVKLGYITPRGEHLISLMGGFYRERFQQQGLLPKDNCPTPDAVYVWADVDQRTRLTGQAFLDGIAPGCGLKVHYQADLEKVDPLFHPVEAGVCQLDSTQTHRAIEAQLGAPLSELSQRYAKPFAQMSEILNFTASPYCKSLQQQGKSCDFATFAANEVKVNQQGTKVSLSGPLALSSTLGEVFLLQEAQGMPQVAWGRITGEKEWRDLLSLHNAQFDLLQRTPYLAKHNGTPLLQTIAHALGSNITSRPLPDISPDNKILFIAGHDTNIANISGMLGMTWTLPGQPDNTPPGGALVFERWVDNAGKPYVSVNMVYQTLAQLHDQAPLTLQHPAGSVRLNIPGCSDQTPDGYCPLSTFSRLVSHSVEPACQLP
modifications: N-linked glycans, heterogeneous (hypermannosylation), from secretion by Pichia pastoris; sites not stated
notes: Recombinant chimera of phytase fragments from Hafnia alvei, Yersinia mollaretii and Citrobacter braakii; It was secreted by P. pastoris and purified; also called DJ 11
  binding result: no binding
